This is an account of results in patent publication US20050100897A1, “NFAT transcription factors in tumor progression” (priority 2002, published 2005).

Format in all cases: cell-based, human
In experiment [1] the test system is parental MDA-MB-435 β4-negative cells. In words: Matrigel invasion assay, parental MDA-MB-435 cells. The settings on record: transient transfection, parental MDA-MB-435 (no α6β4). As to the method: (§1) FIGS. 5A-5B are graphs and immunoblots showing the effects of NFAT1 and NFAT5 over expression on transfected cells. Parental MDA-MB-435 β4-negative cells were transiently transfected with wild-type NFAT-1 (FIG. 5A) tagged with the HA epitope (NFAT-1) or with wild-type NFAT-5 (FIG. 5B) tagged with the myc epitope (NFAT-5) or control vector alone (vector). Following the transfection protocol, cells were assayed for their ability to migrate or to invade Matrigel. Relative migration/invasion were determined by comparing the amount of migration/invasion obtained from NFAT transfectants to that obtained from cells transfected with vector alone, which was assigned a value of 100%. An aliquot of transfected cells was lysed and nuclear extracts were resolved by SDS PAGE and immunoblotted with anti-HA or anti-myc. The data shown are mean values (±SEM) of 3 experiments performed in triplicate.
(§2) Invasion assays were performed using standard methods (see Shaw et al., Cell 91:949-960, 1997) using Transwell chambers coated with Matrigel. […] Cells that stained positive for β-galactosidase expression were counted, and the mean of triplicate assays for each experimental condition was used as % relative invasion. […]

For experiment [2], the system named is parental MDA-MB-435 cells. In words: Chemotactic migration assay (Transwell without Matrigel), parental MDA-MB-435. To be noted: transient transfection; conditioned media present, no Matrigel. The protocol: as §1
Increased cell migration was intimately linked with carcinoma invasion. […]
as §2

Experiment [3] concerns Clone A colon cancer cell line. Briefly: Matrigel chemoinvasion assay, Clone A cells. The settings on record: transient transfection.
Experimental: Invasion assays were performed using standard methods (see Shaw et al., Cell 91:949-960, 1997) using Transwell chambers coated with Matrigel. Briefly, cells were co-transfected with the indicated NFAT constructs, 1 μg EGFP-N1 (Clontech) and 1 μg pCS2-(n)β-Gal, a •gal expression vector (Dave Turner, University of Michigan) using the Lipofectamine procedure (Life Technologies), and after twenty-four hours, the cells were resuspended in serum-free medium containing 0.1% bovine serum albumin (BSA) and added to each well. […] Cells that stained positive for β-galactosidase expression were counted, and the mean of triplicate assays for each experimental condition was used as % relative invasion.

B1: wild-type NFAT-5: wild-type NFAT-5 tagged with the myc epitope, transiently overexpressed (protein)
chain: MSQTSGGEAGSPPPAVVAADASSAPSSSSMGGACSSFTTSSSPTIYSTSVTDSKAMQVESCSSAVGVSNRGVSEKQLTSNTVQQHPSTPKRHTVLYISPPPEDLLDNSRMSCQDEGCGLESEQSCSMWMEDSPSNFSNMSTSSYNDNTEVPRKSRKRNPKQRPGVKRRDCEESNMDIFDADSAKAPHYVLSQLTTDNKGNSKAGNGTLENQKGTGVKKSPMLCGQYPVKSEGKELKIVVQPETQHRARYLTEGSRGSVKDRTQQGFPTVKLEGHNEPVVLQVFVGNDSGRVKPHGFYQACRVTGRNTTPCKEVDIEGTTVIEVGLDPSNNMTLAVDCVGILKLRNADVEARIGIAGSKKKSTRARLVFRVNIMRKDGSTLTLQTPSSPILCTQPAGVPEILKKSLHSCSVKGEEEVFLIGKNFLKGTKVIFQENVSDENSWKSEAEIDMELFHQNHLIVKVPPYHDQHITLPVSVGIYVVTNAGRSHDVQPFTYTPDPAAAGALNVNVKKEISSPARPCSFEEAMKAMKTTGCNLDKVNIIPNALMTPLIPSSMIKSEDVTPMEVTAEKRSSTIFKTTKSVGSTQQTLENISNIAGNGSFSSPSSSHLPSENEKQQQIQPKAYNPETLTTIQTQDISQPGTFPAVSASSQLPNSDALLQQATQFQTRETQSREILQSDGTVVNLSQLTEASQQQQQSPLQEQAQTLQQQISSNIFPSPNSVSQLQNTIQQLQAGSFTGSTASGSSGSVDLVQQVLEAQQQLSSVLFSAPDGNENVQEQLSADIFQQVSQIQSGVSPGMFSSTEPTVHTRPDNLLPGRAESVHPQSENTLSNQQQQQQQQQQVMESSAAMVMEMQQSICQAAAQIQSELFPSTASANGNLQQSPVYQQTSHMMSALSTNEDMQMQCELFSSPPAVSGNETSTTTTQQVATPGTTMFQTSSSGDGEETGTQAKQIQNSVFQTMVQMQHSGDNQPQVNLFSSTKSMMSVQNSGTQQQGNGLFQQGNEMMSLQSGNFLQQSSHSQAQLFHPQNPIADAQNLSQETQGSLFHSPNPIVHSQTSTTSSEQMQPPMFHSQSTIAVLQGSSVPQDQQSTNIFLSQSPMNNLQTNTVAQEAFFAAPNSISPLQSTSNSEQQAAFQQQAPISHIQTPMLSQEQAQPPQQGLFQPQVALGSLPPNPMPQSQQGTMFQSQHSIVAMQSNSPSQEQQQQQQQQQQQQQQQQQSILFSNQNTMATMASPKQPPPNMIFNPNQNPMANQEQQNQSIFHQQSNMAPMNQEQQPMQFQSQSTVSSLQNPGPTQSESSQTPLFHSSPQIQLVQGSPSSQEQQVTLFLSPASMSALQTSINQQDMQQSPLYSPQNNMPGIQGATSSPQPQATLFHNTAGGTMNQLQNSPGSSQQTSGMFLFGIQNNCSQLLTSGPATLPDQLMAISQPGQPQNEGQPPVTTLLSQQMPENSPLASSINTNQNIEKIDLLVSLQNQGNNLTGSF
As to B1, the carcinoma invasion result in experiment [1] is recorded as “this was not observed”. Also, in experiment [2], the chemotactic migration entry is recorded as “sufficient to increase chemotactic migration”.

B2: DBD5: NFAT-5 dominant negative mutant comprising amino acids 175-471 (SEQ ID NO:14) of NFAT5a (protein, listed as Homo sapiens)
chain: GNGTLENQKGTGVKKSPMLCGQYPVKSEGKELKIVVQPETQHRARYLTEGSRGSVKDRTQQGFPTVKLEGHNEPVVLQVFVGNDSGRVKPHGFYQACRVTGRNTTPCKEVDIEGTTVIEVGLDPSNNMTLAVDCVGILKLRNADVEARIGIAGSKKKSTRARLVFRVNIMRKDGSTLTLQTPSSPILCTQPAGVPEILKKSLHSCSVKGEEEVFLIGKNFLKGTKVIFQENVSDENSWKSEAEIDMELFHQNHLIVKVPPYHDQHITLPVSVGIYVVTNAGRSHDVQPFTYTPDPAA
Take B2: in experiment [3], the “carcinoma invasion (relative invasion vs vector alone)” value was “also inhibited invasion”.

B3: wild-type NFAT-1: wild-type NFAT-1 tagged with the HA epitope, transiently overexpressed (protein)
chain: MNAPERQPQPDGGDAPGHEPGGSPQDELDFSILFDYEYLNPNEEEPNAHKVASPPSGPAYPDDVMDYGLKPYSPLASLSGEPPGRFGEPDRVGPQKFLSAAKPAGASGLSPRIEITPSHELIQAVGPLRMRDAGLLVEQPPLAGVAASPRFTLPVPGFEGYREPLCLSPASSGSSASFISDTFSPYTSPCVSPNNGGPDDLCPQFQNIPAHYSPRTSPIMSPRTSLAEDSCLGRHSPVPRPASRSSSPGAKRRHSCAEALVALPPGASPQRSRSPSPQPSSHVAPQDHGSPAGYPPVAGSAVIMDALNSLATDSPCGIPPKMWKTSPDPSPVSAAPSKAGLPRHIYPAVEFLGPCEQGERRNSAPESILLVPPTWPKPLVPAIPICSIPVTASLPPLEWPLSSQSGSYELRIEVQPKPHHRAHYETEGSRGAVKAPTGGHPVVQLHGYMENKPLGLQIFIGTADERILKPHAFYQVHRITGKTVTTTSYEKIVGNTKVLEIPLEPKNNMRATIDCAGILKLRNADIELRKGETDIGRKNTRVRLVFRVHIPESSGRIVSLQTASNPIECSQRSAHELPMVERQDTDSCLVYGGQQMILTGQNFTSESKVVFTEKTTDGQQIWEMEATVDKDKSQPNMLFVEIPEYRNKHIRTPVKVNFYVINGKRKRSQPQHFTYHPVPAIKTEPTDEYDPTLICSPTHGGLGSQPYYPQHPMVAESPSCLVATMAPCQQFRTGLSSPDARYQQQNPAAVLYQRSKSLSPSLLGYQQPALMAAPLSLADAHRSVLVHAGSQGQSSALLHPSPTNQQASPVIHYSPTNQQLRCGSHQEFQHIMYCENFAPGTTRPGPPPVSQGQRLSPGSYPTVIQQQNATSQRAAKNGPPVSDQKEVLPAGVTIKQEQNLDQTYLDDELIDTHLSWIQNIL
As for B3, the carcinoma invasion entry in experiment [1] is recorded as “also induced carcinoma invasion”. Besides, the chemotactic migration result in experiment [2] was “sufficient to increase chemotactic migration”.
